From patent US20160222100A1

Assays:
[1] = target: recombinant full-length neuroligin-3 (Origene) (mouse) (UniProt Q8BYM5); test: cell-based or functional assay
[2] = target: secreted neuroligin-3 in conditioned medium of optogenetically stimulated Thy1::ChR2 mouse cortical slices (mouse); test: cell-based or functional assay

UniProt Q8BYM5, sequence (Q8BYM5 35-825 limits assumed): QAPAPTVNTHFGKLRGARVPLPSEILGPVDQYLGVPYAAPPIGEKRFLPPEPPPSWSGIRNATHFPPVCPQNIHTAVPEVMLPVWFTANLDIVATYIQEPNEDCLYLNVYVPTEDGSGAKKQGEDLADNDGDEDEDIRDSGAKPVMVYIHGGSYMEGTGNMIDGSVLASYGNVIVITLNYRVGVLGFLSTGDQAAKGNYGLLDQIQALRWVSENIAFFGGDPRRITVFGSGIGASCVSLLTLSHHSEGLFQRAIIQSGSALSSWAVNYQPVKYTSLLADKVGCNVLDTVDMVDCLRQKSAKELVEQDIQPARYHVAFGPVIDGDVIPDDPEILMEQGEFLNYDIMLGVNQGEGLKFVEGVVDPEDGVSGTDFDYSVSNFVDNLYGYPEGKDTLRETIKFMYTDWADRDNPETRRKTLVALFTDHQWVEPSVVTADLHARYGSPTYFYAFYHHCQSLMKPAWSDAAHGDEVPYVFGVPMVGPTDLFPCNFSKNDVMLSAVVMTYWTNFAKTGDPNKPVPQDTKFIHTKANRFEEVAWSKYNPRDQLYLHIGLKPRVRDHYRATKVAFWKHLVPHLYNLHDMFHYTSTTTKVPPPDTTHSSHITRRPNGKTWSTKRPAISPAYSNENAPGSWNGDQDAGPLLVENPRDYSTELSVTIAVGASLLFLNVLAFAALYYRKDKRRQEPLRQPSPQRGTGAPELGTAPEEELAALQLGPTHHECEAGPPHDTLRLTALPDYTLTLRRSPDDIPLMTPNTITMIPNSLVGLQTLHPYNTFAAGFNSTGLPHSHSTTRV

## neurexin-1β (recombinant, R&D Systems) (ligand)
[1]
  proliferation index of pHGG (SU-pcGBM2) cells, EdU assay, 24 h: 0.28
[2]
  proliferation index of pHGG (SU-pcGBM2) cells, EdU assay, 24 h: 0.34
